Assay results from paper PMC11406361, “Several orphan solute carriers functionally identified as organic cation transporters: Substrates specificity compared with known cation transporters” (The Journal of Biological Chemistry, 2024).

What was measured:
Assay in all cases: cells, lysate or membranes
[1] = tested on: CC(N)Cc1ccccc1; details: pH 7.4
[2] = tested on: CN1CCC[C@H]1c1cccnc1; details: other: SLC38A10, HEK293, net uptake over empty vector cells; pH 7.4
[3] = tested on: Clc1cccc(Cl)c1N=C1NCCN1; details: other: SLC38A10, HEK293, net uptake over empty vector cells; pH 7.4
[4] = tested on: C[N+](C)(C)CCO; details: other: SLC35E1, HEK293, net uptake over empty vector cells; pH 7.4

Substance | Km [1] | Km [2] | Km [3] | Vmax [3] [µmol/min/mg] | Vmax/Km [3] [µL/min/mg] | Km [4] | Vmax [4] [µmol/min/mg] | Vmax/Km [4] [µL/min/mg]
SLC38A10 (Homo sapiens) | 120 (±44.9) μM | 62.0 (±35.6) μM | 162 (±141) μM | 0.000427 | 2.64 |  |  | 
SLC35E1 (Homo sapiens) |  |  |  |  |  | 91.6 (±39.8) μM | 8.71e-05 | 0.95
